Laboratory results published in patent US20180327506A1 (AbbVie / Abbott, published 2018).
Read-outs that look alike come from different tables or passages of the source. One block for each binder: values may come before it.

How the values were obtained:
[1] = biological target: T1, full-length mature human CD97 (residues Q21-I845) with N-terminal aspartic acid/lysine epitope tag, … (human, UniProt P48960 21-835); test: flow cytometry on HEK293T cells overexpressing hCD97
T1 construct: whole, on cells; also called hCD97; hCD97-NFlag
T1 sequence (looked up): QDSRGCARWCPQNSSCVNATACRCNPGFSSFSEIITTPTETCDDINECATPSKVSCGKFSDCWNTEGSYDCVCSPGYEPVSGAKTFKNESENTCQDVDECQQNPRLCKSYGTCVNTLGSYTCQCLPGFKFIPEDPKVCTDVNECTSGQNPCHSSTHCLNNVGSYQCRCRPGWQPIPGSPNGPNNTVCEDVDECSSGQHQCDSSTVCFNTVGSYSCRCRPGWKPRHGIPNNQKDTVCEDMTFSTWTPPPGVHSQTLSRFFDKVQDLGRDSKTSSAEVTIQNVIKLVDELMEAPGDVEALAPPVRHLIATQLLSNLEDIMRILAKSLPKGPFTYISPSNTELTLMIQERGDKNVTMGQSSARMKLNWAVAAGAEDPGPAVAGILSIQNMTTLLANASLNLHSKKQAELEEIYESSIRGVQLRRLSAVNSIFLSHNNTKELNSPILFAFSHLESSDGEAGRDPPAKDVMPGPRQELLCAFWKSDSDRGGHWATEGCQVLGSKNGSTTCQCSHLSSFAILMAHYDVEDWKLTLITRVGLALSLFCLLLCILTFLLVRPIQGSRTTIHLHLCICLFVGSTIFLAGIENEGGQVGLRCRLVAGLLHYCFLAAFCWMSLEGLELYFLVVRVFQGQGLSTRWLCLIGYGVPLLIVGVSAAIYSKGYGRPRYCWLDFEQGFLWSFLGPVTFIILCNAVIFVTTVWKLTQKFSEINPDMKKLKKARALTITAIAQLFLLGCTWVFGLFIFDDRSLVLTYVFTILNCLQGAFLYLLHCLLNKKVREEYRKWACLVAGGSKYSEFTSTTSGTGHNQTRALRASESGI
Method: (§1) The exemplary antibodies were also tested using flow cytometry to determine their ability to associate with hEMR2, cEMR2 and CD97 expressed on the surface of cells.

[2] = biological target: T2, full-length mature human EMR2 (residues Q24-N823) with N-terminal aspartic acid/lysine epitope tag, … (human, UniProt Q9UHX3 24-823); test: cell-based or functional assay
T2 sequence: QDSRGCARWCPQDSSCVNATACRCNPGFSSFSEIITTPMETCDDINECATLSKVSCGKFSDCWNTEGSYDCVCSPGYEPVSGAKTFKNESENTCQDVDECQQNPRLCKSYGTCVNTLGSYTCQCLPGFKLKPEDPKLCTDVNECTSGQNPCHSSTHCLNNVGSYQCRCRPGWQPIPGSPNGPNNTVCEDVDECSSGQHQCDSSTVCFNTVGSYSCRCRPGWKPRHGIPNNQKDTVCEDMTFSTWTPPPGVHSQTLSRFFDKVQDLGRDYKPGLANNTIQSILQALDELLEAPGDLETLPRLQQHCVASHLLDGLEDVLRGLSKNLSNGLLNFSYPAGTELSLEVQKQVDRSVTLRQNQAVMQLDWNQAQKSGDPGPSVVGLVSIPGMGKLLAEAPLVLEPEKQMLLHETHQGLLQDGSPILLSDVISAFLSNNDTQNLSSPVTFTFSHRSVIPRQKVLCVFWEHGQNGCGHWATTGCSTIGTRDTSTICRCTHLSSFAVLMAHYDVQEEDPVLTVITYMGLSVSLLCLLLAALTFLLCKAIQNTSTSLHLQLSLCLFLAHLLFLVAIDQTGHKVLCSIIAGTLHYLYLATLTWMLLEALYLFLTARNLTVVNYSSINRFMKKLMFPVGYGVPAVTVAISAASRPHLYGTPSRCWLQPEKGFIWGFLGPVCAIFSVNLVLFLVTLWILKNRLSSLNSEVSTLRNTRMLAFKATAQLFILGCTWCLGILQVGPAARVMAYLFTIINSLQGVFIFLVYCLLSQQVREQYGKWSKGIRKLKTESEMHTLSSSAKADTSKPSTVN

[3] = biological target: T1, full-length mature human CD97 (residues …); test: cell-based or functional assay
[4] = biological target: T3, full-length mature cynomolgus EMR2 (residues Q24-N816) with N-terminal aspartic acid/lysine epitope tag, … (cynomolgus monkey (Macaca fascicularis), UniProt A0A2K5WL23 21-816); test: cell-based or functional assay
T3 sequence: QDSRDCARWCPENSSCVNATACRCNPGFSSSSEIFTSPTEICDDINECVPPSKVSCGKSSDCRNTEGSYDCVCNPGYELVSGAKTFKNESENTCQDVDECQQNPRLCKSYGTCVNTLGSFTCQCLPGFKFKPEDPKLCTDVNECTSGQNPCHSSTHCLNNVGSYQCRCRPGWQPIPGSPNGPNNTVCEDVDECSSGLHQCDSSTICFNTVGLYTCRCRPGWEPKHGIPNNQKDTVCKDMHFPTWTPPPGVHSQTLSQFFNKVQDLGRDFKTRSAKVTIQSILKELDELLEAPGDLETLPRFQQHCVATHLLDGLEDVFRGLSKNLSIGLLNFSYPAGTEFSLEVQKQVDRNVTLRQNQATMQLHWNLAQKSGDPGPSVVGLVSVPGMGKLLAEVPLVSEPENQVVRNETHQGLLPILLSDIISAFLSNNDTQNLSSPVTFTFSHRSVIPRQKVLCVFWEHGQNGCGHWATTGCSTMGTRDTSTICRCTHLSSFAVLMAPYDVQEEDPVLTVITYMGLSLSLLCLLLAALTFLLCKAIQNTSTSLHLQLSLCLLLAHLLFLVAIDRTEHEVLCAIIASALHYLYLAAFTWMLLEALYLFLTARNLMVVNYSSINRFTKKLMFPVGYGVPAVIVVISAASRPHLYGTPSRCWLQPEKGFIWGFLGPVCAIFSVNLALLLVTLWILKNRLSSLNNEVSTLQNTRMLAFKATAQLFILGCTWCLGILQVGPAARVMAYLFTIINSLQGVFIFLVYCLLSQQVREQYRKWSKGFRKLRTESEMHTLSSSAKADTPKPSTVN

[5] = biological target: T2, full-length mature human EMR2 (residues …); test: flow cytometry on transduced HEK293T; 293 naive MFI 102
Method: as §1

[6] = biological target: T1, full-length mature human CD97 (residues …); test: as above
Method: as §1

[7] = biological target: T3, full-length mature cynomolgus EMR2 …; test: as above
Method: as §1

[8] = biological target: T2, full-length mature human EMR2 (residues …); test: cell-based or functional assay; remark: listed apart in the source
[9] = biological target: T1, full-length mature human CD97 (residues …); test: cell-based or functional assay; remark: listed apart in the source
[10] = biological target: T3, full-length mature cynomolgus EMR2 …; test: cell-based or functional assay; remark: listed apart in the source
[11] = biological target: T2, full-length mature human EMR2 (residues …); test: flow cytometry on transduced HEK293T; 293 naive MFI 67.6
Method: as §1

[12] = biological target: T1, full-length mature human CD97 (residues …); test: as above
Method: as §1

[13] = biological target: T3, full-length mature cynomolgus EMR2 …; test: as above
Method: as §1

[14] = biological target: T2, full-length mature human EMR2 (residues …); test: flow cytometry on transduced HEK293T; 293 naive MFI 97.2
Method: as §1

[15] = biological target: T1, full-length mature human CD97 (residues …); test: as above
Method: as §1

[16] = biological target: T3, full-length mature cynomolgus EMR2 …; test: as above
Method: as §1

[17] = biological target: T2, full-length mature human EMR2 (residues …); test: flow cytometry on transduced HEK293T; 293 naive MFI 95.6
Method: as §1

[18] = biological target: T1, full-length mature human CD97 (residues …); test: as above
Method: as §1

[19] = biological target: T3, full-length mature cynomolgus EMR2 …; test: as above
Method: as §1

binding result [1]: no binding
FC MFI [5]: 49900
FC MFI [6]: 98.3
FC MFI [7]: 40400
B1: SC93.266 (antibody, V domains shown)
VH: EVKLEESGGGLVQPGGSMKLSCAASGFTFSDAWMDWVRQSPEKGLEWVAEIRSKVNNHETYYAESVKGRFTISRDDSKSSVYLQMNSLRAEDTGIYYCIRNDYFDYWGQGTTLTVSS
VL: DIQMTQTTSSLSASLGDRVTISCSASQGIRNYLNWYQQKPDGTVKLLIYYTSRLHSGVPSRFSGSGSGTDYSLTISNLEPEDIATYYCQQYGKLPYTFGGGTKLEIN
notes: Murine hybridoma antibody
% live, FAB-saporin killing assay [2]: 13.1%
% live, FAB-saporin killing assay [3]: 99.2%
% live, FAB-saporin killing assay [4]: 12.7%

FC MFI [11]: 26000
FC MFI [12]: 61.8
FC MFI [13]: 62.6
B2: SC93.160 (antibody, IgG2a, V domains shown)
VH: QILLVQSGPELKKPGETVKISCKASGYTFTDYGIHWVKQAPGKGLKWMGWINTKTGVPTYADDFKGRFAFSLETSASTAYLQINNLKIEDTATYFCAGGNSLYYGSRPYWGQGTLVTVSA
VL: DIVMTQSPSSLTVTAGEKVTMSCKSSQSLLNSGNQKNYLTWYQQKPGQPPKLLIYWASTRESGVPDRFTGSGSGTDFTLTISSVQAEDLAVYYCQNDYSYPTFGSGTKLELK
notes: murine, IgG2a
% live, FAB-saporin killing assay [8]: 96.8%
% live, FAB-saporin killing assay [9]: 105%
% live, FAB-saporin killing assay [10]: 101%

FC MFI [14]: 5080
FC MFI [15]: 74.2
FC MFI [16]: 72.5
B3: SC93.221 (antibody, IgG1, V domains shown)
VH: QIQLVQSGSELKKPGETVKISCKASGYTFTDYSINWVKQAPGKGFKWMGWINTYTGVPTYADDFKGRFAFSLETSATTAYLQINNLKNEDTATYFCARARYDGYYGRFDYWGQGTTLTVSS
VL: DFLMTQTPLSLPVSLGDQASISCRSSQSIVHSNGDTYLEWFLQKPGQSPKLLIYKVSNRFSGVPDRFSGSGSGTDFTLKISRVEAEDLGVYYCFQGSHVPFTFGSGTKLEIK
notes: murine, IgG1
% live, FAB-saporin killing assay [8]: 101%
% live, FAB-saporin killing assay [9]: 99.1%
% live, FAB-saporin killing assay [10]: 92.2%

FC MFI [17]: 76.2
FC MFI [18]: 87.5
FC MFI [19]: 85.3
B4: SC93.219 (antibody, IgG2b, V domains shown)
VH: EVQLVESGGGLVQPGGSRKLSCAASGFTFSSYGMHWVRQAPEKGLEWVAYISSSGGTIYYADTVKGRFTISRDNAKNTLFLQMTSLRSEDTAMYYCARRGYGNSFDYWGQGTTLTVSS
VL: QIVLTQSPAIMSASPGEKVTMTCSASSSVSYMYWYQQKPGSSPRLLIYDTSNLASGVPVRFSGSGSGTSYSLTISRMEAEDAATYYCQQWSSYPPFGGGTKLEIK
notes: murine, IgG2b
% live, FAB-saporin killing assay [8]: 100%
% live, FAB-saporin killing assay [9]: 102%
% live, FAB-saporin killing assay [10]: 87.7%
